The results in this text go back to PMC4838878 (2016).

Sequences and labels used below:
T1: Olf domain of mouse Latrophilin3 (Lphn3^Olf) (mouse, UniProt Q80TS3-3 199-495)
T1 chain: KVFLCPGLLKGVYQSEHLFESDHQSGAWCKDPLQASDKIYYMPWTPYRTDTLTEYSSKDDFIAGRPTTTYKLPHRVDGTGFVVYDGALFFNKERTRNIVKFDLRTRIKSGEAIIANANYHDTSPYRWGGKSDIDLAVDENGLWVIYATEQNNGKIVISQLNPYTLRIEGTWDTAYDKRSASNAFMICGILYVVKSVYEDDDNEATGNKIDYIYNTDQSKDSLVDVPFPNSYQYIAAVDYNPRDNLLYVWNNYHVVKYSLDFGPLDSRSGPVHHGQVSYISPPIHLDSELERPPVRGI

B1: rat Unc5D ectodomain (Unc5D^ecto), biotinylated at a C-terminal Avitag (domain or fragment)
chain: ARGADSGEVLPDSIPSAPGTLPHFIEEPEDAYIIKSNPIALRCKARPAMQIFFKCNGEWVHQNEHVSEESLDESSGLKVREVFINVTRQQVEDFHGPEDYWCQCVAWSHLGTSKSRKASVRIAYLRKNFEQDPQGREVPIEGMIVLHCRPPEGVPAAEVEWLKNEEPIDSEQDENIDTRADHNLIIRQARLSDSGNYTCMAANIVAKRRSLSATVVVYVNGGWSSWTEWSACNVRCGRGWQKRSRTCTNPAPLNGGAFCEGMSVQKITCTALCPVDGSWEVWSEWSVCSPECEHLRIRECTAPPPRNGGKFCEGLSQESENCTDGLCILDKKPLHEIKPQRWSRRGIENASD
modifications: biotin on the C-terminal Avitag (enzymatic)
B2: FLRT2^LRR+Lphn3^Lec–Olf (mixed in a 1:2 molar ratio) (complex)
chain 1: ACPSVCRCDRNFVYCNERSLTSVPLGIPEGVTVLYLHNNQINNAGFPAELHNVQSVHTVYLYGNQLDEFPMNLPKNVRVLHLQENNIQTISRAALAQLLKLEELHLDDNSISTVGVEDGAFREAISLKLLFLSKNHLSSVPVGLPVDLQELRVDENRIAVISDMAFQNLTSLERLIVDGNLLTNKGIAEGTFSHLTKLKEFSIVRNSLSHPPPDLPGTHLIRLYLQDNQINHIPLTAFANLRKLERLDISNNQLRMLTQGVFDHLSNLKQLTARNNPWFCDCSIKWVTEWLKYIPSSLNVRGFMCQGPEQVRGMAVRELNMNLLSCPT
chain 2: PIPMAVVRRELSCESYPIELRCPGTDVIMIESANYGRTDDKICDSDPAQMENIRCYLPDAYKIMSQRCNNRTQCAVVAGPDVFPDPCPGTYKYLEVQYECVPYKVEQKVFLCPGLLKGVYQSEHLFESDHQSGAWCKDPLQASDKIYYMPWTPYRTDTLTEYSSKDDFIAGRPTTTYKLPHRVDGTGFVVYDGALFFNKERTRNIVKFDLRTRIKSGEAIIANANYHDTSPYRWGGKSDIDLAVDENGLWVIYATEQNNGKIVISQLNPYTLRIEGTWDTAYDKRSASNAFMICGILYVVKSVYEDDDNEATGNKIDYIYNTDQSKDSLVDVPFPNSYQYIAAVDYNPRDNLLYVWNNYHVVKYSLDFGPLD
B3: mouse FLRT2 ectodomain (FLRT2^ecto), ITC construct (domain or fragment)
chain: CPSVCRCDRNFVYCNERSLTSVPLGIPEGVTVLYLHNNQINNAGFPAELHNVQSVHTVYLYGNQLDEFPMNLPKNVRVLHLQENNIQTISRAALAQLLKLEELHLDDNSISTVGVEDGAFREAISLKLLFLSKNHLSSVPVGLPVDLQELRVDENRIAVISDMAFQNLTSLERLIVDGNLLTNKGIAEGTFSHLTKLKEFSIVRNSLSHPPPDLPGTHLIRLYLQDNQINHIPLTAFANLRKLERLDISNNQLRMLTQGVFDHLSNLKQLTARNNPWFCDCSIKWVTEWLKYIPSSLNVRGFMCQGPEQVRGMAVRELNMNLLSCPTTTPGLPVFTPAPSTVSPTTQSPTLSVPSPSRGSVPPAPTPSKLPTIPDWDGRERVTPPISERIQLSIHFVNDTSIQVSWLSLFTVMAYKLTWVKMGHSLVGGIVQERIVSGEKQHLSLVNLEPRSTYRICLVPLDAFNYRTVEDTICSEATTHASYLNNGSNTASSHEQTTSHSMGSPF
B4: FLRT2^ecto+Lphn3^Olf (kept together in the ITC cell) (complex)
chain 1: B3 chain
chain 2: T1 chain

The target of assay [1] is FLRT2^LRR+Lphn3^Lec–Olf DDD mutant (mouse, UniProt Q8BLU0 35-362; Q80TS3-3 92-463, D397N | D399T, artificial N-linked glycan at position 397). Nature of the assay: SPR; apparent KD; FLRT2LRR mixed with Lphn3Lec-Olf DDD mutant. In general terms: In SPR one partner is held on a chip, and binding of the other changes the refractive index at the surface.
In assay [2] the target is B1. Nature of the assay: SPR; apparent KD; FLRT2LRR mixed with Lphn3Lec-Olf.
The target of assay [3] is T1, Olf domain of mouse Latrophilin3 …. Nature of the assay: ITC. In general terms: Isothermal titration calorimetry measures the heat released or taken up as one component is titrated into another.
For assay [4], the target named is T2, Unc5D ectodomain (Unc5D^ecto), ITC construct (human (methods; the results say rat), UniProt Q6UXZ4 32-383). The experiment in a line: ITC.
T2 sequence (Q6UXZ4 32-383): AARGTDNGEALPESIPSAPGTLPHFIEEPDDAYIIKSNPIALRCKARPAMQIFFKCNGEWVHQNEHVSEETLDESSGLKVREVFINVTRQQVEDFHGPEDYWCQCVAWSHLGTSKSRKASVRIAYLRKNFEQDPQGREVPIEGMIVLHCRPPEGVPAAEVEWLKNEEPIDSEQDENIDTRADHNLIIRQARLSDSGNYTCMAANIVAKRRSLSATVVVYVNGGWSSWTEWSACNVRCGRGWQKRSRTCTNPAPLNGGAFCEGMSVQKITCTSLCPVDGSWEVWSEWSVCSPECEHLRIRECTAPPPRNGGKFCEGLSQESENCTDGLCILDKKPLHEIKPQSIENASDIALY
Assay [5] has as its target T2, Unc5D ectodomain (Unc5D^ecto), ITC …. The experiment in a line: ITC; FLRT2ecto premixed 1:1 with Lphn3Olf.

Consider B1, for which the Kd in assay [1] was about 9 nM.

As to B2, the Kd in assay [2] is about 9 nM.

Turning to B3, the figures for the Kd in assay [3] and in assay [4] were 9.7 nM and 2300 nM, respectively.

For the molecule B4, the Kd in assay [5] was found to be 106 nM.
